Data from patent US20110117099A1.

Biological target: type I Collagen (Sigma)
Assay: solid phase assay, biotinylated rBSdrF titrated on collagen-coated wells

**Q.** How did the concentration at which maximum binding occurs turn out when “purified recombinant B domain of SdrF (rBSdrF), N-terminal His tag (from UniProt Q9KI14 678-1128)” was run?
**A.** The concentration at which maximum binding occurs was 20 ng/mL.
